Laboratory results: article PMC4935880, “COG lobe B sub-complex engages v-SNARE GS15 and functions via regulated interaction with lobe A sub-complex” (Scientific Reports, 2016)

What was measured:
GFP-hGS15 (human) [1] = target: GFP-hGS15 (human) (UniProt Q9NYM9); experiment: co-IP; GFP IP on GBP (GFP binding protein) beads from lysates of transfected HEK293T cells (50 mM Tris pH 7.4, 150 mM NaCl, 1% Triton X-100), 2 h at room temperature; blotted for COG8, Myc and GFP
GFP-hGS15 (human) [2] = target: GFP-hGS15 (human) (UniProt Q9NYM9); experiment: co-IP; HEK293T cells with lobe B-myc and a GFP-tagged partner fractionated into P15, P100 and S100; membrane pellets solubilised with Triton X-100 and incubated with GBP-beads; blotted with anti-Myc and anti-GFP
[3] = target: T1, lobe B complex isolated from HEK cells (GFP-hCOG5 + hCOG6/8-3Myc + hCOG7-3Myc) (human, UniProt Q9UP83 1-860; Q9Y2V7 1-657; P83436 1-770; Q96MW5 1-612); experiment: pull-down; GST-tagged GS15 proteins held on Glutathione Sepharose 4B; whole COG complex or lobe B isolated from HEK cells added in 25 mM HEPES-KOH pH 7.4, 25 mM KCl, 2.5 mM magnesium acetate, 1 mM DTT, 0.05% Tween-20, 1 hour at room temperature; Myc blot; conditions: both partners purified
T1 construct: Human COG5 in pEGFP-C1; Human COG6-3Myc in MultiLabel vector; Human COG7 in pCMV-3Myc; Human COG8-3Myc in MultiLabel vector; Elution from TALON by imidazole probably releases His6-GBP together with the GFP-tagged complex; also called lobe B sub-complex; purified lobe B; source: HEK293T, transfected; isolated by Sephacryl S-300 HR gel filtration and TALON-GBP beads, eluted with 350 mM imidazole, …
T1 sequence (Q9UP83 whole entry, chain 1 of 4): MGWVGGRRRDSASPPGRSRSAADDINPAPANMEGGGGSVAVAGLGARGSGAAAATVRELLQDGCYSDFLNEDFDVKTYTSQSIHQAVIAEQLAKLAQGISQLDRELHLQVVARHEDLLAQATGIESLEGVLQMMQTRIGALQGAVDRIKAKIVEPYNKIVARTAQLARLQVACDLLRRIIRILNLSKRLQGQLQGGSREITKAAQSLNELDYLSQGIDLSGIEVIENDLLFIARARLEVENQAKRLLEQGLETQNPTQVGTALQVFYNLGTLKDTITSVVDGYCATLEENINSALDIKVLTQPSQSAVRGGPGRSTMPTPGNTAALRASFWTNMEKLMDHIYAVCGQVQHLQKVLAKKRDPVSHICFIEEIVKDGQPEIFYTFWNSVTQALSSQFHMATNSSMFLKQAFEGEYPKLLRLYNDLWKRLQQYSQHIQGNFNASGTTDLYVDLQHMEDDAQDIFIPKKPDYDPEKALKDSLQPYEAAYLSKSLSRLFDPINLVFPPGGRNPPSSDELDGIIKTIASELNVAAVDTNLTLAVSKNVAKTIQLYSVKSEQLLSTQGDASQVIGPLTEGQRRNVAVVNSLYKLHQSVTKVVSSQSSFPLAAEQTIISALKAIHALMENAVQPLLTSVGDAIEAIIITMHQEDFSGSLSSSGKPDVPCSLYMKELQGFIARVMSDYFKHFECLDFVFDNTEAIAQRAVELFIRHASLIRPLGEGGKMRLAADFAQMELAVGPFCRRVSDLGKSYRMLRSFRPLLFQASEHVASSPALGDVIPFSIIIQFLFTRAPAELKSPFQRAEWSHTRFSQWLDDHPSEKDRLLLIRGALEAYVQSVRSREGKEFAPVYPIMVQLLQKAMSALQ
T1 sequence (Q9Y2V7 whole entry, chain 2 of 4): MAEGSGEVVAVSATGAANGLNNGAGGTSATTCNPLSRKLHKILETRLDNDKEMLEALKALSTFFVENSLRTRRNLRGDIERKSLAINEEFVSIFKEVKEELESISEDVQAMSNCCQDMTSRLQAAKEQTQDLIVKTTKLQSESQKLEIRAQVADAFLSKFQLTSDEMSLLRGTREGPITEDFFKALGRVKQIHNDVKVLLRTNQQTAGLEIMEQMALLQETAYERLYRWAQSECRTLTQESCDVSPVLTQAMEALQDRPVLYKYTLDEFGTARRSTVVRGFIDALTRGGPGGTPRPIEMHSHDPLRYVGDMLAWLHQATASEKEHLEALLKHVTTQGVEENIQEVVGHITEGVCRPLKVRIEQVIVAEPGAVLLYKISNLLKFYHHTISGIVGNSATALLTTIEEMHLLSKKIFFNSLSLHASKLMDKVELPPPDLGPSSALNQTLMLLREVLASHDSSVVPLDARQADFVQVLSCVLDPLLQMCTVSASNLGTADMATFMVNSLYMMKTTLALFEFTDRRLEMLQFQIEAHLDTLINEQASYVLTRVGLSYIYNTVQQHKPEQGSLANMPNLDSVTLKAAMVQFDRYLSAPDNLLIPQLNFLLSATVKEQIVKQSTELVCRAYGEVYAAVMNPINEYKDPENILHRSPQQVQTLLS
T1 sequence (P83436 whole entry, chain 3 of 4): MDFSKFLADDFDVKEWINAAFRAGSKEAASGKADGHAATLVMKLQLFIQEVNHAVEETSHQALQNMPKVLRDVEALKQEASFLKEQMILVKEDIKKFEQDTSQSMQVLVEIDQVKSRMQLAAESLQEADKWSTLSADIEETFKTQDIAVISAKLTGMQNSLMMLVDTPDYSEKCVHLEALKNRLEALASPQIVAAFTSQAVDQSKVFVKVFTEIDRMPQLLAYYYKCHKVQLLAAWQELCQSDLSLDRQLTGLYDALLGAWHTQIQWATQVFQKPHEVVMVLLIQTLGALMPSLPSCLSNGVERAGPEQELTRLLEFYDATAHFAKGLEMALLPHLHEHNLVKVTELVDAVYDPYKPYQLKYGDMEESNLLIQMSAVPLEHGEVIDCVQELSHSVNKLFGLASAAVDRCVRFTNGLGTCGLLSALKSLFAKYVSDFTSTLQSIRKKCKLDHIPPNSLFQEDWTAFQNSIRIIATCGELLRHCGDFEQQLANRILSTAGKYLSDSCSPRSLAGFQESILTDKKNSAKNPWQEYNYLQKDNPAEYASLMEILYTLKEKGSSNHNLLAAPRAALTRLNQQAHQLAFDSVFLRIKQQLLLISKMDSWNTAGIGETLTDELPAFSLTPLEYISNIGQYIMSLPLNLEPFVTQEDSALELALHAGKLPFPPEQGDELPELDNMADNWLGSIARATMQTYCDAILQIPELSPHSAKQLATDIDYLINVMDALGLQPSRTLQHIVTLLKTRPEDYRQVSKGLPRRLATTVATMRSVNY
T1 sequence (Q96MW5 whole entry, chain 4 of 4): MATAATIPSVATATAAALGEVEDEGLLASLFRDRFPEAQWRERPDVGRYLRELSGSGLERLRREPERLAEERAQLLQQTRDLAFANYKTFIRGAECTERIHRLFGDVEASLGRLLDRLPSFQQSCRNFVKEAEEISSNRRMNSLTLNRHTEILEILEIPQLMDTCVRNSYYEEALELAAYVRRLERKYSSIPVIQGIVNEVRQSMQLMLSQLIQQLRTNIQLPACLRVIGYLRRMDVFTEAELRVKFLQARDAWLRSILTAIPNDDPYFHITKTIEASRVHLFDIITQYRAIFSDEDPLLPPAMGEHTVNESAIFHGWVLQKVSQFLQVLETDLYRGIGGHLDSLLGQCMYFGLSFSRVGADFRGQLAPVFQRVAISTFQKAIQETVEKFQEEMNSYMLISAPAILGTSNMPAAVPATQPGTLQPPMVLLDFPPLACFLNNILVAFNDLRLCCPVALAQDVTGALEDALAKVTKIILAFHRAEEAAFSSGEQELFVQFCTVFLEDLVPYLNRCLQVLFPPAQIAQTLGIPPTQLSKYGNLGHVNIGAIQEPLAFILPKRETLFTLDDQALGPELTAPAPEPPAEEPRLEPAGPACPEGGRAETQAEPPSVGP

[4] = target: T2, whole COG complex isolated from HEK cells (GFP-mCOG3 + hCOG1/2/4-3Myc + hCOG6/8-3Myc + hCOG5/7-3Myc) (human | mouse, UniProt Q8WTW3 1-980; Q14746 1-738; Q8CI04 1-820; Q9H9E3 1-785; Q9UP83 1-860; Q9Y2V7 …); experiment: as above; conditions: both partners purified
T2 construct: Human COG1-3Myc in MultiLabel vector; Human COG2Streptag-3Myc in MultiLabel vector; Mouse COG3 in pEGFP-C1; Human COG4-3Myc in MultiLabel vector; Human COG5-3Myc in MultiLabel vector; Human COG6-3Myc in MultiLabel vector; Human COG7-3Myc in MultiLabel vector; Human COG8-3Myc in MultiLabel vector; Elution from TALON by imidazole probably releases His6-GBP together with the GFP-tagged complex; also …

Molecule: COG1-HA-GS-COG8 hybrid (hCOG1-HA-GS-TEV-hCOG8-3Myc)
- co-IP efficiency (percent of input) (GFP-hGS15 (human) [1]): 0.3%

Molecule: lobe B sub-complex, myc-tagged (hCOG5-3Myc, hCOG6-3Myc, hCOG7-3Myc, hCOG8-3Myc), Q9UP83 1-860; Q9Y2V7 1-657; P83436 1-770; Q96MW5 1-612
- percent pull-down (GFP-hGS15 (human) [2]): < 12%

B1: His-hGS15-GST, full-length (FL) GS15 cytoplasmic domain (aa 1–86) (domain or fragment, human, UniProt Q9NYM9 1-86, looked up)
chain: MADWARAQSPGAVEEILDRENKRMADSLASKVTRLKSLALDIDRDAEDQNRYLDGMDSDFTSMTSLLTGSVKRFSTMARSGQDNRK
notes: Human GS15 cytoplasmic domain (aa 1–86) in pET28a; also called GST-tagged full-length (FL) GS15 cytoplasmic domain; not shown: GST, C-terminal, kept
- binding result [3]: binds
- binding result [4]: binds
